Assay results taken from US20220251562.

Assays:
[1] = molecular target: CD3 epsilon/delta heterodimer (Homo sapiens) (UniProt P07766+P04234); test: SPR; settings: kinetic
[2] = molecular target: CD3 epsilon/gamma heterodimer (Homo sapiens) (UniProt P07766+P09693); test: SPR; settings: steady state
[3] = molecular target: CD3 epsilon/delta heterodimer (Macaca fascicularis) (UniProt Q95LI5+Q95LI8); test: SPR; settings: steady state
[4] = molecular target: T1, CD3 epsilon/delta heterodimer (Mus musculus) (UniProt P22646+P04235); test: SPR; settings: steady state
T1 sequence 1: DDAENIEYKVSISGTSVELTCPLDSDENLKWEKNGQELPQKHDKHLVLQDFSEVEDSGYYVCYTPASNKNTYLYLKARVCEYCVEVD
T1 sequence 2: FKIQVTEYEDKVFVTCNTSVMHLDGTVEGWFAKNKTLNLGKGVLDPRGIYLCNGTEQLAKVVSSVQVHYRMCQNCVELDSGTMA

[5] = tested on: CD3 complex on Jurkat cells (Homo sapiens); test: flow; settings: apparent

Chain of CD3 epsilon/delta heterodimer (Homo sapiens) (P07766 23-126, stated change not applied, chain 1 of 2): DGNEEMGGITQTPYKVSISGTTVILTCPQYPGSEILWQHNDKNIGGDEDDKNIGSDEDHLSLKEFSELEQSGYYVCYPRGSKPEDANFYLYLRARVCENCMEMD
Chain of CD3 epsilon/delta heterodimer (Homo sapiens) (P04234 22-105, stated change not applied, chain 2 of 2): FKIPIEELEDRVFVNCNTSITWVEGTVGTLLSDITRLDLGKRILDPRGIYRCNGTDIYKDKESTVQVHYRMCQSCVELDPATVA
Chain of CD3 epsilon/gamma heterodimer (Homo sapiens) (P07766 23-126, chain 1 of 2): as the sequence (P07766 23-126, stated change not applied, chain 1 of 2) above
Chain of CD3 epsilon/gamma heterodimer (Homo sapiens) (P09693 23-116, chain 2 of 2): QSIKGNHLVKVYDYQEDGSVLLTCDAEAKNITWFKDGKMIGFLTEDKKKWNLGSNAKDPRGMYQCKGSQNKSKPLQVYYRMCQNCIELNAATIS
Chain of CD3 epsilon/delta heterodimer (Macaca fascicularis) (Q95LI5 22-117, stated change not applied, chain 1 of 2): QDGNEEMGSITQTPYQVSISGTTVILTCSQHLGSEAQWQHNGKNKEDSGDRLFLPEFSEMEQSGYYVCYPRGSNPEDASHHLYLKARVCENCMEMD
Chain of CD3 epsilon/delta heterodimer (Macaca fascicularis) (Q95LI8 22-105, stated change not applied, chain 2 of 2): as the sequence (P04234 22-105, stated change not applied, chain 2 of 2) above, with I5V, N15K, I20V, S32T, D33N, I34N, T64A, S74N, V83L counted along it

GGGNTTGGCNNNGGGNCTGGC [CELTIC_core]
Kd [1]: 1 nM | Kd ([2]; kinetic 845 pM (Table 8)): 427 nM | Kd [3]: 1210 nM | Kd [4]: 591000 nM | Kd ([5]; negligible signal on Ramos): > 50 nM

GGGTTTGGCACCGGGCTGGC [CELTIC_core_12]
Kd ([1]; _ is abasic C3 spacer at position 16): 1.5 nM | Kd ([2]; _ is abasic C3 spacer at position 16, kinetic 1.15 pM (Table 8)): 98 nM

GGGTTTGGCACGGGCCTGGC [CELTIC_core_24]
Kd ([1]; _ is abasic C3 spacer at position 11, 5'-HEG): 0.041 nM | Kd ([2]; _ is abasic C3 spacer at position 11, 5'-HEG, kinetic 67 pM (Table 8)): 218 nM

GGGTTTGGCACGGGCCTGGC [CELTIC_core_24t]
Kd ([1]; _ is abasic C3 spacer at position 11, 5'-HEG, 3'-3' dT): 0.006 nM | Kd ([2]; _ is abasic C3 spacer at position 11, 5'-HEG, 3'-3' dT, kinetic 238 pM (Table 8)): 233 nM

GGGTTTGGCACGGGCTGGC [CELTIC_core_42 5'-tetrazine]
Kd ([5]; _ is abasic C3 spacer (positions 11 and 16), HEG, 5'-tetrazine-PEG5, specificity retained vs Ramos): < 25 nM

GGGTTTGGCACGGGCTGGC [CELTIC_core_42]
Kd ([1]; _ is abasic C3 spacer at positions 11 and 16, 5'-HEG): 0.772 nM | Kd ([2]; _ is abasic C3 spacer at positions 11 and 16, 5'-HEG, kinetic 277 pM (Table 8)): 194 nM | Kd ([5]; _ is abasic C3 spacer (positions 11 and 16), 5'-HEG, biotin at 5' or 3' end equivalent): < 50 nM

GGGTTTGGCACGGGCTGGC [CELTIC_core_42t]
Kd ([1]; _ is abasic C3 spacer at positions 11 and 16, 5'-HEG, 3'-3' dT): 0.275 nM | Kd ([2]; _ is abasic C3 spacer at positions 11 and 16, 5'-HEG, 3'-3' dT, kinetic 43 pM (Table 8)): 176 nM

GGGTTTGGCATCGGGCTGGC [CELTIC_core_29]
Kd ([1]; _ is abasic C3 spacer at position 16, 5'-HEG): 0.014 nM | Kd ([2]; _ is abasic C3 spacer at position 16, 5'-HEG, kinetic 5.4 pM (Table 8)): 205 nM
